Biological target: the molecule itself
Test: 2D electron crystallography; lysenin in a lipid bilayer (liposomes containing SM); 2D crystals, trigonal array with space group p3, projection map at 14 Å

B1: lysenin (natural protein)
chain: MSAKAAEGYEQIEVDVVAVWKEGYVYENRGSTSVDQKITITKGMKNVNSETRTVTATHSIGSTISTGDAFEIGSVEVSYSHSHEESQVSMTETEVYESKVIEHTITIPPTSKFTRWQLNADVGGADIEYMYLIDEVTPIGGTQSIPQVITSRAKIIVGRQIILGKTEIRIKHAERKEYMTVVSRKSWPAATLGHSKLFKFVLYEDWGGFRIKTLNTMYSGYEYAYSSDQGGIYFDQGTDNPKQRWAINKSLPLRHGDVVTFMNKYFTRSGLCYDDGPATNVYCLDKREDKWILEVVG
notes: A thrombin cleavage site and six histidines follow the C terminus (printed as …); also called WT lysenin; native lysenin; source: E. coli BL21, purified (Ni-NTA IMAC, SEC)
binding result: binds
